# Data from patent US20200164032A1 (WASHINGTON UNIVERSITY, published 2020).
# Like-named read-outs stand apart in the source and are kept apart here.
# T1: murine CCL21 (mouse, UniProt P84444 24-133)
# T1 construct: also called mCCL21
# T1 sequence: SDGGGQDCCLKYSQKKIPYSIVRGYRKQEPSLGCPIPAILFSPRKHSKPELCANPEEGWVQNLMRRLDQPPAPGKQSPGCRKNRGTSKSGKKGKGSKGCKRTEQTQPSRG
# T2: murine CCL24 (mouse, UniProt Q9JKC0 27-119)
# T2 construct: also called mCCL24
# T2 sequence: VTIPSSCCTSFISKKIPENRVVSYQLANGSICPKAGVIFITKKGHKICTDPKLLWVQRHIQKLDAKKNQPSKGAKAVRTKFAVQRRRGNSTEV
# T3: human CCL5 (human, UniProt P13501 24-91)
# T3 construct: also called hCCL5
# T3 sequence: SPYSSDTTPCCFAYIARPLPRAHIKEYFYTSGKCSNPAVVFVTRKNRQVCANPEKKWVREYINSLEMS
# T4: murine CCL20 (mouse, UniProt O89093 28-97)
# T4 construct: also called mCCL20
# T4 sequence: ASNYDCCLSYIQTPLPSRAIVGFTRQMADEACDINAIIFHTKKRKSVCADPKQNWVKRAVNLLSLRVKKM
# T5: murine XCL1 (lymphotactin) (mouse, UniProt P47993 22-114)
# T5 construct: also called mXCL1; lymphotactin (XCL1)
# T5 sequence: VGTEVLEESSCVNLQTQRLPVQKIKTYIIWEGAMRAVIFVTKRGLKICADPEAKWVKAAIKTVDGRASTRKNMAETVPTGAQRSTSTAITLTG
# T6: murine CCL3 (mouse, UniProt P10855 24-92)
# T6 construct: also called mCCL3
# T6 sequence: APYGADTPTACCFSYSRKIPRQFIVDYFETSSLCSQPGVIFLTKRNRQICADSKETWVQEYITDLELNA
# T7: CCL9 (UniProt P51670 22-122)
# T7 sequence: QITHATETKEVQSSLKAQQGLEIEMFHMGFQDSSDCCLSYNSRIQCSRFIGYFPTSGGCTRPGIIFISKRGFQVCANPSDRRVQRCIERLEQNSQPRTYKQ
# T8: murine CCL4 (mouse, UniProt P14097 24-92)
# T8 construct: also called mCCL4
# T8 sequence: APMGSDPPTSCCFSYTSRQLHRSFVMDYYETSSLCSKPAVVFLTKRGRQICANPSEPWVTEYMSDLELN
# T9: murine CCL8 (mouse, UniProt Q9Z121 24-97)
# T9 construct: also called mCCL8
# T9 sequence: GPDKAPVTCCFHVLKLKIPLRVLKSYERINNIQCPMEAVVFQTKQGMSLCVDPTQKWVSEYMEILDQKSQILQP
# T10: murine CCL12 (mouse, UniProt Q62401 23-104)
# T10 construct: also called mCCL12
# T10 sequence: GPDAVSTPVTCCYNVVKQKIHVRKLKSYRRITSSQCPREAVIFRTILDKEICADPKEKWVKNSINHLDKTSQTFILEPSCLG
# Experiments:
# murine CCL2 [1] = molecular target: T11, murine CCL2 (mouse, UniProt P10148 24-148)
# murine CCL21 = molecular target: T1, murine CCL21; test: SPR, R17 on CM5 chip
# murine CCL24 [2] = molecular target: T2, murine CCL24; test: SPR, R17 on CM5 chip
# murine CCL5 = molecular target: T12, murine CCL5 (mouse, UniProt P30882 24-91); test: SPR, R17 on CM5 chip; KD,eq from saturation binding, Scatchard analysis
# T12 construct: also called mCCL5
# human CCL5 = molecular target: T3, human CCL5; test: as above
# murine CCL20 [3] = molecular target: T4, murine CCL20; test: as above
# [4] = molecular target: T5, murine XCL1 (lymphotactin); test: as above
# murine CCL3 = molecular target: T6, murine CCL3; test: as above
# CCL9 [5] = molecular target: T7, CCL9; test: as above
# murine CCL4 = molecular target: T8, murine CCL4; test: as above
# murine CCL8 [6] = molecular target: T9, murine CCL8; test: as above
# murine CCL24 [7] = molecular target: T2, murine CCL24; test: as above
# murine CCL2 [8] = molecular target: T11, murine CCL2; test: as above
# murine CCL12 [9] = molecular target: T10, murine CCL12; test: as above
# [10] = molecular target: CCL2 (species not given); test: SPR, R17 variant on CM5 chip; column ka x 10^6 M-1s-1
# murine CCL20 [11] = molecular target: T4, murine CCL20; test: SPR, R17 on CM5 chip, chemokine injected; global 1:1 mass transport fit
# human CCL2 = molecular target: T13, human CCL2 (human, UniProt P13500 24-99); test: as above
# T13 construct: also called hCCL2
# CCL9 [12] = molecular target: T7, CCL9; test: as above
# murine CCL8 [13] = molecular target: T9, murine CCL8; test: as above
# murine CCL2 [14] = molecular target: T11, murine CCL2; test: as above
# murine CCL12 [15] = molecular target: T10, murine CCL12; test: as above
# [16] = molecular target: CCL3 (species not given); test: SPR, R17 variant on CM5 chip; column KDeq (nM); ka, kd, KD printed n/a
# T11 sequence (P10148 24-148 limits assumed): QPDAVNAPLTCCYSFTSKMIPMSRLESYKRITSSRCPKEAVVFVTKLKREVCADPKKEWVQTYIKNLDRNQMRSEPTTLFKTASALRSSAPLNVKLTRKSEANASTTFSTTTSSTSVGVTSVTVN
# T13 sequence (P13500 24-99 limits assumed): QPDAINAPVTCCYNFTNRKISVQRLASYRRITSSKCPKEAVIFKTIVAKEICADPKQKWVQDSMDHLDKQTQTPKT
# T12 sequence (P30882 24-91 limits assumed): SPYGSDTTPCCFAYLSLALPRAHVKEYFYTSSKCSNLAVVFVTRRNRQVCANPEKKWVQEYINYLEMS
binder,measurement,setting,value
"R17 chemokine decoy receptor of Rodent herpesvirus Peru (RHVP), wild type, C-terminal 8-His fusion (receptor, not shown: C-terminal 8-His tag) GPVGEPVASEINEASKVSSRLLTQDILFRKDRQATISLPIKLPVEDIITQTCDKITYGPLKFLDLLEKETAVLPLSTDITCPACLGRAVLVGKWECPAHVAVNESDLTVFGPNKEEHVPQFVTVQQPSDGKMQRLFFAKFLGTEESLAVLRVPGPDGHLCIQEALIHFKELSGAGVCSLWKANDSREEGLEMKQVDCLETTVLENQTCIATTLSKKIYHRLYCGERLMTGGQVSTRVLLTALGFYKRQPYTFHRVPKGMVYVHLIDSGSEDYMEYSECEEVTPGRYEDKQISYTFYTDLFQTADGEPVLASVWGTSGLKDSAYESCAFVIPTKGRRKLVPRRIMSKCYPFRLTYHPSTMTVRLDVRVEKHHGATDQGFVFLKMESGTYSEGREYYLDRVLWGEDSSTNNVLQ",Kd,murine CCL2 [1],12 nM
same,binding result,murine CCL21,no binding
same,complex half-life,murine CCL24 [2],> 10 min
same,Kd,murine CCL5,0.1 nM
same,Kd,human CCL5,0.9 nM
same,Kd,murine CCL20 [3],3.4 nM
same,Kd,[4],4.2 nM
same,Kd,murine CCL3,0.4 nM
same,Kd,CCL9 [5],1.3 nM
same,Kd,murine CCL4,0.8 nM
same,Kd,murine CCL8 [6],80 nM
same,Kd,murine CCL24 [7],2.2 nM
same,Kd,murine CCL2 [8],10 nM
same,Kd,murine CCL12 [9],1.3 nM
same,kon,[10],2e+06 M⁻¹ s⁻¹
same,koff,murine CCL20 [11],0.031 s⁻¹
same,kon,murine CCL20 [11],6.5e+06 M⁻¹ s⁻¹
same,koff,human CCL2,0.012 s⁻¹
same,kon,human CCL2,1e+06 M⁻¹ s⁻¹
same,koff,CCL9 [12],0.01 s⁻¹
same,kon,CCL9 [12],3.6e+06 M⁻¹ s⁻¹
same,koff,murine CCL8 [13],0.1 s⁻¹
same,kon,murine CCL8 [13],1.3e+06 M⁻¹ s⁻¹
same,koff,murine CCL2 [14],0.02 s⁻¹
same,kon,murine CCL2 [14],2e+06 M⁻¹ s⁻¹
same,koff,murine CCL12 [15],0.01 s⁻¹
same,kon,murine CCL12 [15],8.9e+06 M⁻¹ s⁻¹
same,Kd,[16],0.4 nM
